{"source": "paper PMC12412624", "about": "“Engineered Cas12j‐8 is a Versatile Platform for Multiplexed Genome Modulation in Mammalian Cells”", "key": {"[1]": {"test_system": "T1, dCas12j-8 D512R D512R;D369A;E567A;D658A (bacteriophage (metagenome))", "T1 sequence": "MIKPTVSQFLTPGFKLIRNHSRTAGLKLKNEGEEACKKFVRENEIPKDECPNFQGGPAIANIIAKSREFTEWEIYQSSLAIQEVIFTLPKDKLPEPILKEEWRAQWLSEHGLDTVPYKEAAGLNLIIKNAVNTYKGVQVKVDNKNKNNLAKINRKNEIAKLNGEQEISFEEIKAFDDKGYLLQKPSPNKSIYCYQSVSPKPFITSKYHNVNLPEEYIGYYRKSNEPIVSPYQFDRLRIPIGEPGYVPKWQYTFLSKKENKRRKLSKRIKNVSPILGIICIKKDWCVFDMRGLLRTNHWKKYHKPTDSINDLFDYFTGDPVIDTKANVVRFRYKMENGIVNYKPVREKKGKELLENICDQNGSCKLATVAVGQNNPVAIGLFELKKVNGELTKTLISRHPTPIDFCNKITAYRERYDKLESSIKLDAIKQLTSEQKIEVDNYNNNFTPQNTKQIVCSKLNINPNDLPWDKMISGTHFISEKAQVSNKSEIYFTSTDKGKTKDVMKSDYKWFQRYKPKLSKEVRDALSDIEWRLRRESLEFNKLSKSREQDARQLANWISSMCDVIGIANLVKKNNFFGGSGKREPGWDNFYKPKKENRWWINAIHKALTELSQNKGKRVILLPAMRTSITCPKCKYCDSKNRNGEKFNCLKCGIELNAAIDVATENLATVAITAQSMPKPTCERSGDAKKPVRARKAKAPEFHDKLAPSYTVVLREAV", "conditions": "HEK293T cells; panel 1c (compare within a panel only); scale: mean GFP / mean GFP of wild type, printed, no background subtraction"}, "[2]": {"test_system": "T2, dCas12j-8 E101R E101R;D369A;E567A;D658A (bacteriophage (metagenome))", "T2 sequence": "T1 sequence with E101R, R512D", "conditions": "HEK293T cells; panel 1c (compare within a panel only); scale: mean GFP / mean GFP of wild type, printed, no background subtraction"}, "[3]": {"test_system": "T3, dCas12j-8 E258R E258R;D369A;E567A;D658A (bacteriophage (metagenome))", "T3 sequence": "T1 sequence with E258R, R512D", "conditions": "HEK293T cells; panel 1c (compare within a panel only); scale: mean GFP / mean GFP of wild type, printed, no background subtraction"}, "[4]": {"test_system": "T4, dCas12j-8 E258R+D495R+E547R E258R;D495R;E547R;D369A;E567A;D658A (bacteriophage (metagenome))", "T4 sequence": "T1 sequence with E258R, D495R, R512D, E547R", "conditions": "HEK293T cells; panel 1e (compare within a panel only); scale: mean GFP / mean GFP of wild type, printed, no background subtraction"}}, "note": "Residue numbers refer to the chain shown, from its start.", "data": [{"sequence": "CUUUCAAGACUAAUAGAUUGCUCCUUACGAGGAGACACUCCCUAUCAGUGAUAGAG / TTNACTCCCTATCAGTGATAGAG / CTCTATCACTGATAGGGAGTNAA [TetO]", "values": [{"measurement": "binding signal", "setting": "[1]", "result": 1.07}, {"measurement": "binding signal", "setting": "[2]", "result": 0.711}, {"measurement": "binding signal", "setting": "[3]", "result": 1.68}, {"measurement": "binding signal", "setting": "[4]", "result": 4.13}]}]}
